One assay addresses T1, Mouse MSLN (Mus musculus, UniProt Q61468).
T1 construct: also called murine mesothelin
T1 sequence (target, looked up): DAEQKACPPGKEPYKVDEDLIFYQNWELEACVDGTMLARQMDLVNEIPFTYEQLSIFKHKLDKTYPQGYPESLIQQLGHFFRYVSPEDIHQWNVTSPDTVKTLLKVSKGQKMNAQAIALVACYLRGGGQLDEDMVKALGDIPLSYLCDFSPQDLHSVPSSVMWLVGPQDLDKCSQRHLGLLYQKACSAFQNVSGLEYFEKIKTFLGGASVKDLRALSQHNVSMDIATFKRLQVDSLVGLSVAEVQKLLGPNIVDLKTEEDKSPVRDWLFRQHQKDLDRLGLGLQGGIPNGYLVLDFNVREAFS
As to the kind of experiment: FACS on 293T cells transiently expressing the orthologue.

A further assay has as its target T2, Rat MSLN (Rattus norvegicus, UniProt Q9ERA7).
T2 construct: also called rat mesothelin
T2 sequence (target, looked up): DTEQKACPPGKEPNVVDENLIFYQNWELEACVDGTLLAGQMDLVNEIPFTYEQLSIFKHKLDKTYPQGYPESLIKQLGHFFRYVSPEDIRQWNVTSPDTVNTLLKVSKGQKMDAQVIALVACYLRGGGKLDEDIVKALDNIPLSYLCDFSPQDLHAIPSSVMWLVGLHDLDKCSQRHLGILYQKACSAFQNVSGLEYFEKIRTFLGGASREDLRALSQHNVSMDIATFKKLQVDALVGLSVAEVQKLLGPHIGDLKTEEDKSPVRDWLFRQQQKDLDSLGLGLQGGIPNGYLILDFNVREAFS
Described as above.

Protocol for Mouse MSLN: (§1) FACs assays were performed by incubating hybridoma supernatants with 10,000 to 25,000 cells in PBS/2% Fetal bovine serum/2 mM Calcium Chloride at 4° C. for one hour followed by two washes with PBS/2% Fetal bovine serum/2 mM Calcium Chloride. Cells were then treated with florochrome-labeled secondary antibodies at 4° C. followed by one wash. The cells were resuspended in 50 μl of PBS/2% FBS and antibody binding was analyzed using a FACSCalibur™ instrument.
Protocol for Rat MSLN: as §1

B1: 158.3 (antibody, V domains shown)
VH: QVQLQESGPGLVKPSETLSLTCTVSGGSIISHYWSWIRQPPGKGLEWIGYIYYSGSTNYNPSLKSRVTISVDTSKNQFSLKLTSVTAADTAVYYCARDGWSAFDYWGQGTLVTVSS
VL: DIQMTQSPSSLSASVGDRVTITCRASQGIRNALGWYQQKPGKAPKRLIYAASSLQSGVPSRFSGSGSGTEFTLTISSLQPEDFATYYCLQHNSYPRTFGQGTKVEIRR
notes: also called 1.58.3 g1; 1.58.3 g2
For the molecule B1, the binding result with Mouse MSLN is “no binding”.

B2: 151 (antibody, V domains shown)
VH: QVQLQESGPGLVKPSETLSLTCTVSGGSISSYYWSWIRQPPGKGLEWIGYIYYSGSTNYNPSLKSRVTISVDTSKNQFSLKLSSVTAADTAVYYCARVDYKAFDIWGQGTMVTVSS
VL: DIQMTQSPSSLSASVGDRVTITCRASQGIRNDLHWYQQKPGKAPKRLIYAASSLQSGVPSRFSGSGSGTEFTLTISSLQPEDFATYYCLQHYSYPWTFGQGTKVEIK
notes: also called Ab1.51
On to B2, for which the binding result with Mouse MSLN was “no binding”.

B3: Ab237 (Hu-anti-huMesothelin-2.37-IgG1) (antibody, V domains shown)
VH: QVQLQESGPGLVKPSQTLSLTCTVSGGSINNNNYYWTWIRQHPGKGLEWIGYIYYSGSTFYNPSLKSRVTISVDTSKTQFSLKLSSVTAADTAVYYCAREDTMTGLDVWGQGTTVTVSS
VL: DIQMTQSPSSLSASVGDRVTITCRASQSINNYLNWYQQKPGKAPTLLIYAASSLQSGVPSRFSGSRSGTDFTLTISSLQPEDFAAYFCQQTYSNPTFGQGTKVEVK
notes: Fully human antibody from XenoMouse; Only the variable domains are tied to Ab237
In the case of B3, the binding result with Rat MSLN and in the assay with Mouse MSLN was “binds” each time.

Source of the values: patent US20210380714A1 (Amgen, published 2021).
